# Test results published in the DeepSol protein solubility set.
# Experiment: soluble on expression in E. coli; label from the status in PepcDB or PDB records
row,Sequence,soluble on expression in E. coli
1,MDTLDELLPREKMLRSGIASLSDVELLALFLRTGTPGKDVMTLAKEILQHFGSLYGLLSADFAQFRGVNGIGLAKFAQLKGIAELARRYYSVRMNEESALLSPEMTREFLQSQLTGEEREIFLVIFLDAQHRVLQHSRLFSGTLNHVEVHPREIVREAIKLNASAVILAHNHPSGCAEPSKADKLITERVIKCCQFMDIRVLDHLIIGRGEYVSFAERGWI,not soluble
2,ELVMTQSPKFMSTSVGDRVSVTCKASQNVGTHVAWYQQKPGQSPKTLIYSASYRYSGVPDRFTGSGSGTDFTLTIRDVQSEDAAEYFCQQYNLFPVTFGGGTKLEIKRTVAAPSVFIFPPSDEQLKSGTASVVCLLNNFYPREAAVAWKVDNALQSGNSQESVTEQDSADSTYSLSSTLTLSKADYEKHKVYACEVTHQGLSSPVTKSFNRGE,soluble
3,MRHTCPKVTLRQRAIRNGRISLYLDYYPAVRNPETMQMSRREYLGIYIYAHPKNEMEREFNMDMLNKAEAIRCIRVQSLINEEFGFLDRTKMKTDFLAYFLKMCRKKDQKWRIVYQHFYNYVQGHCTFGDITIELCQGFREYLLNAKQLKRKGKVSTNSASGYYSTFRGLLKIAYRDKWLRENINDFLDKIEAKEVKKEYLTLDEVKILAQTPCEHDVLKRASLFSCLTGLRISDILNLRWEDFTLAPDQGYCIRIRTQKTSTEATLPIS,not soluble
4,MAHHHHHHMRSNCAPLGRVKIRILDLTVLSEDASDFVYDGLYVVSRLGPDAQRTNILCNGADSAGGRCWNEVFMFHFEGNPPEFRETAPTLSKSGLDVTVGQHISTYHDGPSLGNPSREYILPQQPHEVKRGLLAPPWMGGSCALPAITLELWRYSLSSDDCLARYQFCIPLEMSSGNIADRVVRLASASSYSVQFALRIRVALSGYDGGALGFENYMPAMSPANLPVLWRH,not soluble
5,MNTELQPKLEKSAVNFQAKPRKQKIRKDPNAPFIREKLELPDGHNKLLLHSCCAPCSGEVMEAILASGIEFTIYFYNPNIHPLKEYLIRKEENIRFAKKFGIPFIDADYDRQNWFDRAKGMEWEPERGIRCTMCFDMRFEKAAEYAHKHGFPVFTSCLGISRWKDMNQINGCGHRAAEKYDDVIYWDYNWRKEGGSQRMIEISKRERFYQQEYCGCVYSLRDSNKWREETGRQKIEIGKLYYSAD,not soluble
6,MNECGHCSVKVGEESAILTNGKVWHVNHLLCDLCNCRINDGERCVPQNGVILCSECHIKTTRPICKGCGEFIKTNLCEALNSTWHPTCFQCSVCQKPLEVDFHQLPNRMCVHSDCFWDLQLRMIVCKDLPK,not soluble
7,MSLDIHEGNLMPAKRKLTMRHIRQMLRLAGSGTSSREIAVMLGIARSTVQDNLKRAAMAGLSWALASGLTDDVLEAKLFVHPGVKRGQRLRQEPDWGPLSIELKKPGVTLLILWEEYRSAHPDGYGYSRFCELFRGFEKRLSPTMRQEHIAGDKVFVDYSGKKVPIVDRKTGEIREAELFLGVLGASSYCTRGRSVHLGELLRRAWIFQHLGNREGHHHHHH,soluble
8,SLHIQRKSTMSKCSADETPVCCCMDVGTIMDNSDCTASYSRVFANRAEAEQTLAALTEKARSVESEPCKITPTFTEESDGVRLDIDFTFACEAEMLIFQLGLR,soluble
9,DMKPNSTKIGVAEATDAALIQALQQRQVFTKTTQPTLSWEQYLELNLNSKSKRLALCNKLHLSYFNHKQLFRKLNLLQLTFDQVCQLLK,not soluble
10,MISLPIDLVLPDLREALVNRNEVILEAPPGAGKTTRVPLALLNESWLGDQKILMLEPRRLAARAAAERLASELGEKVGEIVGYRIRLESKVGPRTKIEVVTEGILARRLQDDPALDGVGVVIFDEYHLRNLHSDLALALCLSGRDLLRDDPPLKLLLMSAT,not soluble
11,LDRQTERLQQGEVDVRFNMVSRMLDHPDLAERWPHLQGKLDNLSQEYELIRFWIDSDDPRYHYGRFSEPVQRLIADGAGRYELELPEHRYALTARVGVLPAREGRPRLTYVTAIDSAAFHEARTSTLKW,not soluble
12,MNVSTSTFQTRRRRLKKVEEEENAATLQLGQEFQLKQINHQGEEEELIALNLSEARLVIKEALVERRRAFKRSQKKHKKKHLKHENANDETTAVEDEDDDLDEDDVNADDDDFMHSETREKELESIDVLLEQTTGGNNKDLKNTMQYLTNFSRFRDQETVGAVIQLLKSTGLHPFEVAQLGSLACDTADEAKTLIPSLNNKISDDELERILKELSNLETLY,soluble
13,MRTRIDYLADKYCFTERNESPRLRRQWQDVLEECRQTEAGPEERLRIALLNVDYVTSFELPFRLLLTRTPQLIAALREEWGISQKNVVFNDKRFGCVYSLKASLSGVPDTYRYHLSHRIRRVVGNENTSLPYQQVAREVKAPRERLKYALEAGLLVTALDGLFRFGSQRIAADVLRLRKAGMPVVTTTVEVHDNLTGTTRKVPAYHL,not soluble
14,MTSTSRPPARGSENNGSGGSDGSGSGEDKVKGPTDKELEDAVNKLVEVAKKKAQEEADQARRSVEGKKSFEGDVLEYPYTREEVTKMIEDGAKEIKERFAAVYTPKPDDFDTMISRMQQVEAVLGAYEPSKNTTKETPVIGGGGDLELLRTSVSDMSDWQGKLKNAFVDNYLTPFPRITVTQGGLARFLRHQAEWMQAIYKRRRYDAKKTADQGVEAIEAIDDSKGSEAAIALAAIIGLATLLGPMGSSLAFGLGTSAVVAGTGIGAEFIEEDKEVPLGADTVQGVIDNVYKALEESDKTMVEEEGKVLDALKQIEGVVYPLVMGPDIDKGTELTPMRPAIVDTMDVEELKDGITVYDRHPGGS,not soluble
15,MGSDKIHHHHHHMKEYRIRPREANLSFLEDLDEEQRRAVVESEGRCIVIAGPGSGKTRVITYKIAYLLANGVDPSRILLVTFTRAAAREMVERAKAVTGRELSEMLAGTFHHVCNHFLRKYAPYVGLERNYSILDREDAESLMRHARSKYLERKSKEERKNFPQPSVLMAIYSYMKNTLKSLRESIVVKNPKFLDLKEEISEIFDLYEQEKRSQNVVDYEDLLFYAYRLFEENKEIRDREAERFLWILVDEFQDTNYVQYKIVEHLSSKHGNILAVGDDAQSIYSFRGARYENVEDFIRVPGTKIFKIQTNYRSTESIVKFINAMLPRKSVPKELKPVKKDGMKPVVVKTWDRYEEARFVSQRILELIEEGFKPEEIAVLYRSHSHSLELQMELVRSRIDFRVLSGPRFTESAHVKDVLSFLRIVQNPRDKSAWLRAAKLFYGIGDRTASKIADLASAYVEEGLDPFQELKKVSFSGEYSRFIDILDQIRKLDSPGEMIERVLSSFYSEYLEARYPDFREREMDLERLVEIASRYTSLESFLTDLAVTENVEIEREISQKEGKVTLTTVHQAKGLEWRVVFVISVNPGDFPNYFAISEGNLDEEERIFYVAITRAKEQLYISYQVTGTSYPYRGNRFIMRSGENFIDRIPLELVEFWEVK,not soluble
16,MYKVSHGLSMVHEDEMGVNAPMDHQRVISKLNVGLGKLFYYDKAISLEPLPETMLDEGRTSRYDGPPTPDLILYDKARDHIPVIIEVCHTRGLKGDLQKVVSLIEDFPYDILEGFVYNYRTEHWFRYRKGDNGIATETSFSEILQLDLNQFL,not soluble
17,MGSDKIHHHHHHMDFALEQYHSAKDLLIFELRKFNPIVLVSSTIVATYVLTNLRHMHLDEMGIRKRLSTWFFTTVKRVPFIRKMIDKQLNEVKDELEKSLRIVDRSTEYFTTIPSHSVGRTEVLRLAAIYDDLEGPAFLEGRVSGAVFNREDDKDEREMYEEVFGKFAWTNPLWPKLFPGVRIMEAEVVRMCCNMMNGDSETCGTMSTGGSISILLACLAHRNRLLKRGEKYTEMIVPSSVHAAFFKAAECFRIKVRKIPVDPVTFKVDLVKMKAAINKRTCMLVGSAPNFPFGTVDDIEAIGQLGLEYDIPVHVDACLGGFLLPFLEEDEIRYDFRVPGVSSISADSHKYGLAPKGSSVVLYRNKELLHNQYFCDADWQGGIYASATMEGSRAGHNIALCWAAMLYHAQEGYKANARKIVDTTRKIRNGLSNIKGIKLQGPSDVCIVSWTTNDGVELYRFHNFMKEKHWQLNGLQFPAGVHIMVTMNHTHPGLAEAFVADCRAAVEFVKSHKPSESDKTSEAAIYGLAQSIPDRSLVHEFAHSYIDAVYALTE,not soluble
18,MAPRDIRPGAEYGDIIEEAIVTCKVFLIVFSETSQISRWVRSELNIGFSSNKPIIPFRIDPTDLKGSMKLMLNDKHWLNAYPNPEEKFSELAAVILDLLQHPAVDTISPPGFQPASNVASADGSNAGAQGLFGKLLNQLFVKRRVKVTSDHAAEIFLNGERKGKLDAYETGNYSVSEDFYQLEVYSCEYGKKVKCEYSGSFSNSSTVIISVDMATAEKQYLMKAKNITSGQINDLGIIFLDEGKFEDAQECFLKAASMGEAAAAYNLGMMYHFGKGVEIDYDVAREYYEEAVKSDYPLALNNLGSIYYNGHGVRKDIAKSFPYFCRAAERGVESAQFTVATMLFYGQGVAVDKAKAKKWFQKAAAQGCKDSQNYLNSWVDD,not soluble
19,MPTYKLTYFNSRFYAEPARILFHLAGVPFEDIRIIHGDGTWEQIKDKTPFGQVPVLNINGFEIPQSTAIIRYLATKFGYAGKTPEEQAWADAICDQVRDFMAVPFKDIVVAKRVGKTEEEVSQLINEGFVPGRDAYFKIITRILEKNKSGFLVGDGITFADIVVVENLTTLQKNQLFEASKYPELAALREKVYAIPAIKKWVEARPDTQY,not soluble
20,KEAIVFSQKTTIDQLHNSLNAASKTGNSNEVLQDPHIGDMYGSVTPLRPQVTRMLGKYAKEKEDMLSLRQVLANAERSYNQLMDRAAN,soluble
21,MAHHHHHHMRGCLHFTRVARHKRHDKGGNAHNFAFDTLTKVYRDAVYLPQEKYRRGLMHPERSPGAPPSQAALVAPSSSSDVTNHVGNIGVMSSVATKLSDWMEQQPHHQTKHHTNGGGGTGHASATASCATPIARRSVASSSPSPAPSAAAATTDESHVDDEAIRRRLRAHLFSDKIQPGQPRTPPSTPVATASASPRRSGVQAEILSVYRSMLREVSRMQDADTRRSLSAYIRQEYDKQCDIPRKNIMKIEWRLNYGKRKLEELQAMSKHTKFTMMR,not soluble
22,MGSDKIHHHHHHMARLLSELQPSEFDITVVAIADTPPDVVSMLPDHVEVKHLKMTRRTALLQLGEISKIVKSTDILVCSLFHATAIGVPLGLLLQVPKLLVWQHSTSYSNQIRSAYYRLAYRAADRVLADSDAVMEMLVDSVGVPDQKISTLPIAGIDVKEYQPSKTHPSHENITVSTVGRLANVKGYDDLIRCARDIGDDLQFQIAGEGEERERLESKTPDNVNFQGMVPNEQIPQFLNNSDIYFQPSKYEGLCMAVIEAMACGLPVVASDVGGITESVVPGETGFLCRPRDIDCFSERLQQLSENPALRKQMGTAGRKRVISEYSQKALARQFRKAIDQTETV,not soluble
23,MHVVYPGSFDPLTNGHLDVIQRASRLFEKVTVAVLENPSKRGQYLFSAEERLAIIREATAHLANVEAATFSGLLVDFVRRVGAQAIVKGLRAVSDYEYELQMAHLNRQLYPGLETLFILAATRYSFVSSTMVKEIARYGGDVSKLVPPATLRALKAKLGQ,soluble
24,MLMDGHTHTELCPHGSGEATEKMIQRAIQLGFQRYCITEHAPLPPAFRDQYEGTPAGYTEASLRENQVADYLALANGLKTKYAGQIEISVGFEVDFLPEHVAWTRDFLNTYGPRTQESILSVHFMRGLRQHFWCVDMSTDDFAAGFGQWLKTPQRVFEQYYQTVLASVQADLGPYAPQRIGHMSLVRKYQDYFGLTEPLDVHNLQLVDQTLALVKQQRRQLDLNLAGLYKPYCNDFYPGEQILQRAQKLDIPLVYGSDAHDIASVGRGYHLIKKLIEGLEHHHHHH,not soluble
25,IKGSTDMDHSGFIQKFIALYGGLNKHTLHHLSEIYSYDVQFIDAVHEINGIDELTDYFTHLYTNLIECKFTIHHVIEDINLTQGEATLFWTMNYKHPKIGKGKSISVEGVSHIKFNDKVFYHRDFLDMGQMVYEHLPLIGPMVKFIKKRVQA,soluble
